Columns and labels:
human ENO1 protein [1] = molecular target: T1, human ENO1 protein (human, UniProt P06733 1-434, limits assumed); experiment: SPR, BIAcore 2000, ENO1 injected, 25 degree C
T1 construct: The source and construct of the ENO1 protein used in ELISA and SPR are not described; also called alpha-enolase; enolase-1
Description: To know the biding kinetics difference among individual antibodies, surface plasmon resonance (SPR) measurement with a BIAcore 2000 (BIAcore, Inc., Piscataway, N.J.) was used as previously described (Karlsson & Falt, (1997) J. Immunol Methods 200:121-133). Carboxymethylated dextran biosensor chips (CMS, BIAcore Inc.) were activated with N-ethyl-N′-(3-dimethylaminopropyl)-carbodiimide hydrochloride (EDC) and N-hydroxysuccinimide (NHS) according to the supplier's instructions. Chimera EN10 mAb was diluted with 10 mM sodium acetate, pH 4.8, into 5 microgram/ml before injection at a flow rate of 20 micro Uminute to achieve approximately 100 response units (RU) of coupled protein followed by the injection of 1M ethanolamine to block unreacted groups. For kinetics measurements, two-fold serial dilutions of ENO1 (0.3125 nM to 40 nM) were injected in HBS-P Biacore running buffer provided by the manufacturer (BIAcore, Inc., Piscataway, N.J.) at 25 degree C. at a flow rate of 25 microL/min, and binding responses on the EN10 mAb were corrected by subtraction of responses on a blank flow cell. Association rates (kon or ka) and dissociation rates (koff or kd) were calculated using a simple one-to-one Langmuir binding model with separate fittings of kon and koff was used. (BIAcore™ Evaluation Software version 3.2).

human ENO1 protein [2] = molecular target: T1, human ENO1 protein; experiment: ENO1 binding ELISA

T1 sequence (P06733 whole entry): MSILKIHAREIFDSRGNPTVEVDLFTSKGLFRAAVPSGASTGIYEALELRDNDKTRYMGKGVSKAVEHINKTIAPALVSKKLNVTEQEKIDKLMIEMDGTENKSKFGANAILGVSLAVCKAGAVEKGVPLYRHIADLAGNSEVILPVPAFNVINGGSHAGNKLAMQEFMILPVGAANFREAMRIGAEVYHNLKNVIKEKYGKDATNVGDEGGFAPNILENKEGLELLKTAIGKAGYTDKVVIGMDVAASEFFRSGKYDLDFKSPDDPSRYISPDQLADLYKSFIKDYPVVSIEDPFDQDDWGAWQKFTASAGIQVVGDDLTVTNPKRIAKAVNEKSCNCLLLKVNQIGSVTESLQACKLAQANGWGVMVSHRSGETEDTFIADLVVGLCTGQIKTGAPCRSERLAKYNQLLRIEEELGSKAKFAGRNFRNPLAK

Binder | Kd (human ENO1 protein [1]) [nM] | koff (human ENO1 protein [1]) [s⁻¹] | kon (human ENO1 protein [1]) [M⁻¹ s⁻¹] | Kd (human ENO1 protein [2]) [nM]
hum EN10 mAb 4D5 (antibody, V domains shown, Humanized variable regions on human IgG; also called humanized EN10 mAb 4D5; 4D5 humanized edition) VH: EVQLVESGGGLVQPGGSLRLSCAASGYTFTSCVMNWVRQAPGKGLEWVAYINPYNDGTKYNEKFKGRFTISRDDSKNTLYLQMNSLRAEDTAVYYCAREGFYYGNFDNWGQGTLVTVSS VL: DIQMTQSPSSLSASVGDRVTITCRASENIYSYLTWYQQKPGKAPKLLIYNAKTLPEGVPSRFSGSGSGTDFTLTISSLQPEDFATYYCQHHYGTPYTFGQGTKLEIKR | 0.5 | 0.000176 | 351000 | –
hum EN10 mAb IMGT (antibody, V domains shown, Humanized variable regions on human IgG; also called Hum EN10 IMGT; humanized EN10 mAb IMGT) VH: QVQLVQSGAEVKKPGASVKVSCKASGYTFTSCVMNWVRQAPGQGLEWMGYINPYNDGTKYNEKFKGRVTMTTDTSTSTAYMELRSLRSDDTAVYYCAREGFYYGNFDNWGQGTLVTVSS VL: DIQMTQSPSSLSASVGDRVTITCRASENIYSYLTWYQQKPGKAPKLLIYNAKTLPEGVPSRFSGSGSGTDFTLTISSLQPEDFATYYCQHHYGTPYTFGQGTKLEIKR | 0.219 | 0.000116 | 531000 | 0.0365

— patent publication US20160185876A1 (DEVELOPMENT CENTER FOR BIOTECHNOLOGY, published 2016)
